From the domain aggregation screens of Martell et al. (2025)

Assay: soluble fraction after stress (log2 fold change); higher = more stays soluble; pooled small domains, quantitative proteomics
Settings: stress: pH 4
How it was run: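 Small protein domains from pooled custom libraries were exposed to pH 4, then quantified with high-throughput quantitative proteomics. The fold change in how much of each domain remains soluble is read as aggregation propensity. It is given as log2, with higher values meaning more stayed soluble.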

Row | Sequence | soluble fraction (log2)
1 | HMVDTSDLPAIVEKVFADNPEQVNDILNGKDRVKGFLVGQIMKATRGQAPPDEVNKLIDATLEKMKAA | 0.188
2 | HMVDYIGRRGVMLSTVSEEKMGNAEVVIDGNSYNIYVKSLDGSTIAYHQEILIINKSKDNNYFLVQIY | -0.548
3 | HMVEAIDQALIEKQIQAVLQENSAAVKKYQAGKTEVLAFLIGQSMRKIAKKVDANLVKNILLEQLKNK | 0.077
4 | HMVEDFSEVLLQYIREQGGAIALNDKTDAGVIYDTFGVSKKTFKKAVGDLYKKRLIVLGDEGIRLA | -0.939
5 | HMVEIGENIKKLRKAKRMTQKEVANQLNVTPQTISKWERNISYPDLDMLVKLSQLFHISTDALL | ≥ 0.43
6 | HMVELNDNEKIVYDILKETEKIHIDELTAKVQLTQSILSGALVQMEMKGMIVSLPGKMYKLL | -1.53
7 | HMVELRDGSLPLARGSVGDLVAEVQRKLGVAADGIFGPQTERAVRAFQARAGLASDGIVGPLTWSALFGA | 0.117
8 | HMVELVKVPALQGETVDEAIADIKDAGLEPGQVRYVESDLPKDTVTYQSVDAGEQVKAGTVINLQASKGP | 0.137
9 | HMVEMSNMELVREQYFQNLIYNVGDWVKDSKTEITGEVVKRGTNYLTIVQEDFTLHKVWLEDAESME | -1.46
10 | HMVEPDELTEREREVLQFVARGLSNKEIGAALALSPHTIKAHLRSILDKLHLRSRAEAAAWAVRSGLS | -0.162
11 | HMVEPLIVRNFSINYADIDKLETKIKDYISNSDKSGVNRGRVTSDTRTNMLIVTETASKLAQVEQLLKALD | -0.591
12 | HMVEPTDFTYLKAEVETAKALKQADYTVATWKSFAGELAEAEEVIAKTDASQAEVNEALSHLQAAEKELV | 0.215
13 | HMVETDQESSLIQAIYKYFEITGDNTFFDEKVGEKTVADRMEWAMDYLIQNRFSEEYGLIWGA | -0.517
14 | HMVFADRLRALRKKSGLTQDEFSKQTGIGRSAVGMYESGKREPNYTTLSKVARFYHVSTDYLLGRTDTP | -0.13
15 | HMVFQTAAEKAYEIISKKIMKGEYEPGMRLVRRQLAQELGVSPIPILEAMKRLEQDGLIEYKAHWGSIVTI | -0.56
16 | HMVFRFELQPSSATPLYRQIVEQVTRAVAAGVLRDGEELPSVRAVAQEYVINPMTVSKAYSLLEAQSI | -0.34
17 | HMVFSNLGSRGEEVRQIQTKLKELGYLQGNVDGIYGNQTKQAVTAFQRDHGLSADGIAGEKTLAALGIG | 0.105
18 | HMVGAEDISKPMNLGALMRTAHAFGASFFFTINAHPKVRHAYNSDTSRSFDHMPYYPWDTMEE | -0.287
19 | HMVGDLPPQELRVFELIGDGLSNREIADEMILAEKTIKNYVTSLLQKLGMQRRTEAAAFAARLDER | -0.607
20 | HMVGDMLTQKDSEGLTAYLYQQGIISQREMLLLNGILKDRVLTGMEKGQRDSVRASMVQHLLAMLNMM | -1.55
21 | HMVGEQISYIPLKFATASEVVKSLTSMFQQQKGIAPIRIVAEERTNAILLLASEADTARVKNLIAMMDKGV | -0.0978
22 | HMVGGIAIGQFNVPRGSVKVTAGGRLLQEGLDYTVNYQAGRVQILDESLKNSNVPIEISTESNS | -0.111
23 | HMVGMDRYFKIKNIKDSSAAFERDYILHFLKENDWMVSKTAQMIGLERTTLYKKIKQLGLASMLEN | -0.386
24 | HMVGQIISNARKQEKMTQSELAEKVGTNKTYISRIEKGVIEPGVGLFFRIIDALGLKIEIVKP | -0.362
25 | HMVHSEDLQDHKYVSQLGEVFLKENPNYENIKKSWGDHMVVIKKFGRYPHRNKILNRKSTPEELEFLKG | -0.115

Row | Sequence | soluble fraction (log2)
26 | HMVILPGEKMVVKIVQPGKEKGQGVGYLADGTMIVVDSGDKMIGQDVPTEITRVFQTVAGKMLFAVPVD | -0.255
27 | HMVIMDLIVNGEPKYVVGEQLHLILDELGYSGKHFVVELNGEILSKEAYTTTKLTAADRLEIVSFVGG | -1.72
28 | HMVITATYTDFMDALEADEVKQVQFSSTEINYTIEKGGHVQYFKTGVVDNPQLPQILREKGVTYAAEIP | -0.023
29 | HMVITDPFFLEPENLVKDAVALMEKYRISGVPITKKGKLVGILTNRDLRFESNYEQPIANVMS | -0.363
30 | HMVITISEADVSGTYTKSITQGDWKYIRTWTPFEDERLYDLAKDPMELRDLAPAAPSKLAELRELLSALVS | -1.56
31 | HMVIVMRKDADAASIEKVVSEVKSRGFMPHVSEGESRTLIGAIGPAPTEELREHFAGLAGVETVVRITK | -0.0319
32 | HMVKDIEFSLPLEQDYYKVLISVKDSQGKRQVYEELHRAGDTVYAAVRYYGSGELEIHLNGKFYKTIK | -1.6
33 | HMVKDLEIETIRLNNLLASDAEEVLKSLGGAKPTYKAVAVPGSNSLVIEGTKADLIKLKSIINALEDGS | -0.316
34 | HMVKETNYSFFLKQIDAGTVEQVQIEDTEIKFKVSTADGKEQVYSTVRVEDPDLVDRLYSKGNIDFTGN | -1.3
35 | HMVKIIHYEVYANRGDGWKLVDQFSADQRQEAVNLAKEIETEDQVAVKIIREIFDVQDNTYQESVEYIG | -0.804
36 | HMVKLDDLTGQDKATAEATITNSGLKYSEQQEFSDEVEAGKVIRTDPGAGTSSLKAGDTVTVYVSRGPEN | -0.0896
37 | HMVKNYYEILEVDKKASPEVIEKAYKTLAKKYHPDLQEAENNGQYEEKMKEINEAYSVLSDEFKRRTYDEQ | 0.103
38 | HMVKSYEVPDVSNLTVLEAEAKLQEMGFEIDEEQKEISSSDIESGRVVKTSPQAGSKRKEGAIITLYVSSG | -0.433
39 | HMVKTANVAYSEFLKLVESDNISDVSIVGRTITGHLDDGTKFSTYTPPNDPSLIDKLTRKNVIIKSAPE | 0.181
40 | HMVKVEVKPNVLQWVIKRMDNFDRLKDQFPNIDKWINQESQPTLKQLEKLAKMTAVPLGYFFLPNPPEEK | -0.507
41 | HMVLELRIGQIVRGVLLQLVGEREGIVSVGGVPVRARLEAEIPLGRGVMLQVQPGSDANNILLKPV | -0.139
42 | HMVLENLKKFIDSKGISVSAFEKSIGMSNNSFRKSLNSGGHIGSDKLENILKIYPELNPVWLLQGEGEML | -0.0839
43 | HMVLGSSVAMGQKIGDSDLTWVEVPLSSAFDRFLSEPEWRGSSDLVAARLLEAGVFLTEDDVVE | 0.136
44 | HMVLLGAAIRELRIQKGITIEELAEMSGLSTGLISKIERDLGNPSISSLRKISRALGVPTAFFFA | -0.744
45 | HMVLSKGAKELLDFIMREGEVTTSKVVQKFGGSAQNASAKLKKLYATGLILGSKAVAESGGLEFVYKA | 0.1
46 | HMVLSVRERMGIVLEKVNTETFTDFKELFTVEEGRAGAIVSLLAILQLMKDSLIQLVQNEPNGPIYVKAA | 0.22
47 | HMVLTSFHDNFPKTGTTYTVRSGDTISGIATKFGSTRDWIQNANEISHPKYLQVGRTLFIPH | 0.22
48 | HMVMATPHNTAKAGDIAKTVIMPGDPLRAKYIADNYLDNAVQFNVVRNIYGYTGVYRGTDISVMASGM | 0.0409
49 | HMVMETLAERINTALQTKGLSVNALARRVGVSYPAMRKITKGETLNPKFLFEIAEALGVSVEWLKTGEGSP | 0.0978
50 | HMVMNKQEFLKILRDTLQSQLSSRETENHVEYYRTYIEEQMREGKTEIEILDVLGDPRLIARTILET | -0.253

Row | Sequence | soluble fraction (log2)
51 | HMVMSTDAELILEYLAKHQGEMEITDKSSPELIMDTFNMSKGAFKRALGSLYKSKTVVIESTKVLLNT | -0.0971
52 | HMVNDQSIYASEGYVHIRSGKPVSLRIYTILGALYRHEERLVGDHVIALPRGLYIVVLNHTAKKIMV | 0.021
53 | HMVNEALDEFFVGLKNLYESATGKPAIAGAHFDGEPKTDFEKLMYLGYQIIRPAQAYPSALKAYERAIARS | -1.15
54 | HMVNHEERKRLIAEATWRTISHVGIEQASVRTIAKEAGLSLGALRYYFTTQEELLRFSMQLVQERV | 0.0598
55 | HMVNIEAEVGRRLRQLRARRGLSLRALADLSGLNVNTLSLIENSKTSPSVSTLQQLARSLQVPITTFFESD | 0.142
56 | HMVNKQERTYTILRDRIHSGSFAPLERLNIDALARELGVSPIPVREALRRLEAEGWVRFTPNVGAVVSP | 0.308
57 | HMVNLLVTPLEELEINFRTLRALRKYNIYQLEDLLRFIKYNGFDALRIVPGMGIKSTEQLYEKLKDKNI | -1.06
58 | HMVNTVEVQGNTIYSAEEIRSASGIQKGDNLFTLNKEAAAGSIKASLPYVETVSIIRFLPDKIVIEVKE | -0.977
59 | HMVNVLKNSTVIDLVKNNLSDALIISLIRRAKVDFSLMTDDVIELSGKGVSPAVIMEMRQAMIRQASEIQN | -0.183
60 | HMVNVTEAIDLENGTGKLSGTFNHEPKSAEEIIFLLKIDTNKWKLSQYWNKQMGDHWRVSALISQI | -1.54
61 | HMVPAMEVALEDARRAIEQVVSGERTSVQLSSQEAMIRKLQHQMAKDANLFSRSSGVEPQRRVTIYTN | -0.478
62 | HMVPHQPRVWTNTAGKTITAAFVRFNAAGRKVSLKLEKGRQVELPLASLSGNDVDWIKEHVPEAMSNQE | -0.00313
63 | HMVPISGADFEKLSDYILQKAGAGSIQVKELLAGLKGMHEKNLWKAIDYLLAEEKIRIDKGGNISVK | -0.249
64 | HMVPQAVQDIKAYLASGALPYIGPATAKKIVAMFGSDALDVIAEHPEQLTAIRGLNEEKANAIHQEFRRQF | 0.0364
65 | HMVPSSHNIAQKVKQIKINDLWLDVRERYIYLKNLYLSHPLEKDHPSFIVYVEAVNQIYNQYF | 0.0743
66 | HMVQDDLRELEGISTELLAKLADAGITNRDDLADLAIDELVAITGQSEDDAKALIMKAREHWFAGDA | -1.09
67 | HMVQIIQLQGTDKRLYELVAPLVMNPEILKQNYNYPFRTSEDFVWFVAVDKKKVIGFIPVEEKKKEYVI | -0.275
68 | HMVRKGEINFDQLSVRARNALRNMNILFEKEILKLTEYDLKSIPNLGVKTTNELLSYIKRLQTNQKEE | -0.653
69 | HMVRRSERLHALTESLRRSGNRGRTAEQLATEFEVSVRTIKRDLVALEASGLPLWSRPGPGGGYGLLS | -0.0236
70 | HMVRTIKILGIKHNINLYYKNVKVPTMNVKNQTLEIILPNKYKKFQEEQILKVLTQKLYDKIAETEIEKIK | ≥ 0.43
71 | HMVSAEQNTLEFIKENVKEDVIEDDIEFYKSLLEDWSVEVDNSSKLLDPGNNNSLLAVIAYSIENEL | -0.414
72 | HMVSDAWITGKVKSQLLADDVTPGMKIDVDTEDRIVSLKGTVPSLTARNEAIRIASHTKGVRTVDADELIV | -0.0247
73 | HMVSFAEQASDWLAHFDRLGDVGPDTTLTDLTARDAEFSAWVNEGIHHRVAFLETLAAWHRTER | -0.0379
74 | HMVSGLEILKIQVQDHPSDWRWALLLARTHYENGNREAAVRTLRPLQRLHPDRLEVMTLWALLA | -0.222
75 | HMVSGSPTVDILMQRGLEYQQQENLEAARDAFDRAINLKPDYAEAWNRRAVLFFNEGKYDEAIADLETAIT | -0.0941
